Reference: patent US7217694B2, “Inhibitors of IAPP fibril formation and uses thereof” (The Governing Counsel of the University of Toronto, priority 2000, dated 2007)
Entries after “also recorded” stand apart in the source; their conditions may differ. No end group written: not given here.

Assays:
RIN-1056A cells = experiment: IAPP toxicity assay (alamar Blue); type: cell-based
Description: RIN-1056A cells were plated into 96 well plates at a density of 2×10^4 cells/well in Dulbecco's Modified Eagle Medium (DMEM) (Gibco-BRL) supplemented with 5% Fetal calf serum (Gibco-BRL), 100 U/ml penicillin (Gibco-BRL), and 100 U/ml streptomycin (Gibco-BRL). After an initial 24 h of culture, cells received fresh medium containing 10 μM hIAPP or rat IAPP alone, or in combination with 200 μM SNNFGA (SEQ ID NO. 11). Cells in control wells received fresh medium only. Cells were incubated with peptide at 37° C., 5% CO2, for 24 hours, after which alamar Blue ( 1/10th volume) was added to each well. Cells were incubated in the presence of alamar Blue (MEDICORP, Montreal) for a period of 8 hours, and data was collected at 2 hour intervals. The fluorescence of the samples was measured using a SpectraMAX Gemini XS Microplate Spectrofluorometer (Molecular Devices) with an excitation wavelength of […] and an emission wavelength of 590 nm. Data were collected using the SoftMax Pro 3.1 software for MacIntosh.
The toxicity of hIAPP fibrils on pancreatic β cell lines has been well documented. […] cells were incubated for 24 hours in the presence of 10 μM hIAPP alone or in the presence of the peptide SNNFGA (SEQ ID NO. 11). An alamar Blue assay was used to quantitatively measure the proliferation of the cells, and compare the cytotoxic effects of various additives to the cultures.

hIAPP 1–37 [1] = biological target: T1, hIAPP 1–37 (Homo sapiens, UniProt P10997); experiment: Sedimentation assay (tyrosine scan) of soluble versus insoluble hIAPP; type: biochemical; conditions: hIAPP 11 μM with 10 fold excess (110 μM) peptide
T1 construct: Synthetic human IAPP (1–37) was purchased from BACHEM; purchased BACHEM (Torrence, Calif.); host or cells: chemical synthesis
T1 sequence (P10997 34-70): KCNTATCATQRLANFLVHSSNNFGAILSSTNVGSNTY
Description: Aliquots of lyophilized hIAPP 1–37 were dissolved in 20 mM acetate buffer (pH 6.5) to 11 μM and incubated in a total volume of 500 μl at room temperature. Tyrosine emission spectra were collected (emission wavelength 275 nm) on a Beckman DU530 spectrophotometer for each sample at time 0. Following a 24 hour incubation at room temperature, the soluble and aggregated peptides in each sample were separated by centrifugation at 16,000 g for 20 minutes, and the emission spectra were measured on the soluble fractions. The samples were then vortexed to resuspend the entire contents of each tube, and were incubated for an additional 24 hours. This process was repeated for a total of 72 hours of incubation. For co-incubation experiments, hIAPP was incubated with a 10 fold excess concentration (110 μM) of the inhibitory peptides SNNFGA (SEQ ID NO. 11), and GAILSS (SEQ ID NO. 14).
Sedimentation assays were performed to confirm the results from CD and electron microscopic analysis (FIGS. 7A and 7B) on the ability of peptides SNNFGA (SEQ ID NO. 11) and GAILSS (SEQ ID NO. 14) to inhibit IAPP fibril formation. hIAPP (11 μM) was incubated for a period of 72 hours in 20 mM acetate buffer alone, or with a 10 fold excess (110 μM) of the peptides.
A tyrosine scan was used to determine the amount of soluble hIAPP remaining in solution after a 72-hour incubation. […] Following a 24-hour incubation, the amount of soluble hIAPP had reduced to 8%. However, when hIAPP was incubated in the presence of the peptide SNNFGA (SEQ ID NO. 11), the amount of IAPP remaining in solution was approximately […], and in the presence of peptide GAILSS (SEQ ID NO. 14), more than 80% of the hIAPP remained in solution. By 48 hours, the hIAPP incubated alone was no longer soluble and was not detectable using a tyrosine scan. However, approximately 25% of the hIAPP was still measured when co-incubated with either peptide. Similarly, after 72 hours approximately 20% of the hIAPP was still soluble in the sample co-incubated with peptide SNNFGA (SEQ ID NO. 11) or GAILSS (SEQ ID NO. 14).

hIAPP 1–37 [2] = biological target: T1, hIAPP 1–37; experiment: Circular dichroism (CD) of IAPP conformational change, random coil to β-sheet; type: biochemical
Excerpt: (§1) FIG. 1 illustrates the sequence of the amyloid-β (Aβ) peptide and its proposed structural domains. A peptide-based approach similar to that used for Aβ (Tjernberg, et al, J Biol Chem 272:12601–12605, 1997) has been used for targeting two key domains in IAPP initially ranging from the 8–20 and 20–29 sequences as shown in FIG. 2. These peptides, as has been shown for Aβ peptides, are able to bind to the full-length IAPP peptide and alter fibrillogenesis. The peptides disrupt fibrillogenesis by disrupting the folding into the amyloidogenic β-sheet conformation, disrupting protofilament interactions, and/or interfering with side chain interactions within the folded IAPP, which are necessary for aggregation and fibril formation. The peptides that have been examined (shown in FIG. 2) were small, synthetic hexapeptides that correspond to the principal sequence domains of IAPP. […] The in vitro assays included: Circular Dichroism (CD), to look at changes in folding of the amyloidogenic β-sheet; negative stain electron microscopy (EM) to examine changes in fibril morphology and relative density; and ThT fluorescence assay which provides a quantitative assessment of fibril formation.
Synthetic human IAPP (1–37) was purchased from BACHEM (Torrence, Calif.), synthetic peptides spanning the region from IAPP 8 to 20 and 19–31 (FIG. 3) were synthesized by the Peptide Synthesis Laboratory at the University of Toronto using standard FMOC (Fluoroenylmethoxycarbonyl) based solid phase peptide synthesis methodology. The peptides were purified by reverse phase HPLC using water/acetonitrile mixtures buffered with 0. 1% trifluoroacetic acid, on a POROS 20R2 column. The synthetic peptides were solubilized in […] (1 mg/ml), filtered (0.2 μm), aliquotted and lyophilized (Higham, C E., et al., FEBS Lett. 470: 55–60, 2000). Aliquots were reconstituted as required in 20 mM sodium acetate buffer pH 6.5.
CD was used to measure the peptide conformational changes associated with fibril formation. CD experiments were carried out at room temperature, and spectra (average of 5 scans) were collected using a Jasco J720 spectropolarimeter and quartz cuvettes with a path length of 1 mm. […]

hIAPP 1–37 [3] = biological target: T1, hIAPP 1–37; experiment: Negative stain electron microscopy of IAPP fibril morphology and density; type: biochemical
Excerpt: as §1
TEM was used for structural analysis of in vitro assembled fibrils. Aliquots (4 μl) were applied to pioloform and carbon coated grids. The samples were incubated on the grids for 3 minutes at room temperature, excess material blotted off and stained with 1% phosphotungstic acid (PTA). Excess PTA was blotted off and the sample was left to air dry. All samples were examined using a Hitachi 7000 electron microscope with an accelerating voltage of 75 kV.
In preliminary work the series of peptides were synthesized from the 20–29 domain and examined, via CD, EM and ThT fluorescence, at two molar ratios (1:10 and 1:20) in comparison to the full-length IAPP residues 1–37. The following data (FIGS. 5A to 5D, 6A to 6C and 7A to 7B) were obtained.

[4] = 24-hour incubation, normalized to hIAPP alone at time 0

Molecule | direct toxicity of the peptide to pancreatic β cells in culture (RIN-1056A cells) | amount of hIAPP remaining in solution (hIAPP 1–37 [1]; [4]) | amount of hIAPP remaining in solution (hIAPP 1–37 [1]; 48 hours) | amount of hIAPP remaining in solution (hIAPP 1–37 [1]; 72 hours) | inhibition of IAPP β-sheet transition and aggregation (CD) (hIAPP 1–37 [2]; 1:10 or 1:20 molar ratio (10- or 20-fold molar excess)) | inhibition of IAPP β-sheet conformational change at reduced concentrations (CD) (hIAPP 1–37 [2]; 5-fold molar excess (1:5) or 1:1 molar ratio) | effect on IAPP β-sheet formation / precipitation (CD) (hIAPP 1–37 [2]; 48-hour incubation, pH 6.5) | inhibition of IAPP β-sheet formation / fibril formation, overall statement (CD) (hIAPP 1–37 [2]; molar ratio not stated) | effect on initial random structure of IAPP (CD) (hIAPP 1–37 [2]; time 0, 1:10 or 1:20 molar ratio) | prevention of IAPP fibril formation (EM) (hIAPP 1–37 [3]; 10- or 20-fold molar excess) | effect on IAPP fibril morphology / density / aggregation (EM) (hIAPP 1–37 [3]; molar ratio not stated) | inhibition of normal IAPP fibrillar aggregation (EM) (hIAPP 1–37 [3]; reduced inhibitor concentrations) | decrease in cell viability compared to cells in culture medium alone (RIN-1056A cells; 10 μM hIAPP, 24 hours)
SNNFGA [SNNFGA] | not directly toxic | approximately 15% | approximately 25% | approximately 20% |  |  |  |  |  |  |  |  | 
GAILSS |  | more than 80% | approximately 25% | approximately 20% | very strong inhibitors of IAPP β-sheet transition; also recorded: majority of IAPP in these samples was maintained in a random conformation | very strong inhibitor; also recorded: capable of maintaining the majority of hIAPP in a random coil conformation | able to prevent the attenuation of signal due to precipitation of IAPP | greatest inhibition of IAPP fibril formation | had no effect on the initial random structure of IAPP | did not completely prevent fibril formation | caused a disruption in IAPP fibrillar structure; also recorded: fibrils formed were less numerous; also recorded: absence of fibrillar aggregates which could act as seeds | effective inhibitors of normal IAPP fibrillar aggregation | 
CC[C@H](C)[C@H](NC(=O)[C@H](C)NC(=O)CNC(=O)[C@H](Cc1ccccc1)NC(=O)[C@H](CC(N)=O)NC(=O)[C@H](CC(N)=O)NC(=O)[C@H](CO)NC(=O)[C@H](CO)NC(=O)[C@H](Cc1c[nH]cn1)NC(=O)[C@@H](NC(=O)[C@H](CC(C)C)NC(=O)[C@H](Cc1ccccc1)NC(=O)[C@H](CC(N)=O)NC(=O)[C@H](C)NC(=O)[C@H](CC(C)C)NC(=O)[C@H](CCCNC(=N)N)NC(=O)[C@H](CCC(N)=O)NC(=O)[C@@H](NC(=O)[C@H](C)NC(=O)[C@@H]1CSSC[C@H](NC(=O)[C@@H](N)CCCCN)C(=O)N[C@@H](CC(N)=O)C(=O)N[C@@H]([C@@H](C)O)C(=O)N[C@@H](C)C(=O)N[C@@H]([C@@H](C)O)C(=O)N1)[C@@H](C)O)C(C)C)C(=O)N[C@@H](CC(C)C)C(=O)N[C@@H](CO)C(=O)N[C@@H](CO)C(=O)N[C@H](C(=O)N[C@@H](CC(N)=O)C(=O)N[C@H](C(=O)NCC(=O)N[C@@H](CO)C(=O)N[C@@H](CC(N)=O)C(=O)N[C@H](C(=O)N[C@@H](Cc1ccc(O)cc1)C(N)=O)[C@@H](C)O)C(C)C)[C@@H](C)O [hIAPP, reference compound] |  |  |  |  |  |  |  |  |  |  |  |  | 35–40%
